Sequences and labels used below:
B1: Pistol ribozyme (parent)
chain: GGGUCGUUGUUCCAUAAUCGCGUGGAUAUGGCACGCAAGUUUCUACCGGGCACCGUAAAUGUCCGACUGGAGCCGUUCGGGCGGCUAUAAACAGACCUCAGGCCCGAAGCGUGGCGGCACCUGCCGCCGGUGGUAAAAAAGAUCGGAAGAGCACACGUCU

Variants of B1 are the subject of the series. The series can be described thus: aptazyme ON/OFF ratio, guanine; higher = stronger switching; co-transcriptional cleavage with and without guanine.
In the case of U8A U10G U11A C12A C13A, the “aptazyme ON/OFF ratio” value is 1.3.
For U8A U10G U11A C12A C13G the value was 1.15; for U8A U10G U11A C12A C13U, 1.11.
Take U8A U10C C12G: the “aptazyme ON/OFF ratio” value worked out at 1.3.
To U8A U10C C12U belongs 3.12.
U8A U10C C12A: the “aptazyme ON/OFF ratio” value came to 1.31.
U8A U11A C12G C13U: the “aptazyme ON/OFF ratio” value worked out at 1.17.
To U8A U11A C12G C13A belongs 1.18.
For the variant U8A U11A C12G C13G, the “aptazyme ON/OFF ratio” value came to 1.06.
As for U8C G9A U10C U11G C12U C13G, the “aptazyme ON/OFF ratio” value was 1.15.
To U8C G9A U10C U11G C12U C13U belongs 1.51; to U8C G9A U10C U11G C12U C13A, 1.42.
Regarding U8C C12G C13A, the “aptazyme ON/OFF ratio” value turned out to be 1.19.
To U8C C12G C13U belongs 1.31; to U8C C12G C13G, 1.15.
For the variant U8A U10G C12U C13A, the “aptazyme ON/OFF ratio” value turned out to be 1.32.
For U8A U10G C12U C13U the value was 1.36; for U8A U10G C12U C13G, 1.23; for U8A U10C C12A C13U, 1.26.
In the case of U8A U10C C12A C13A, the “aptazyme ON/OFF ratio” value came to 1.23.
In the case of U8A U10C C12A C13G, the “aptazyme ON/OFF ratio” value worked out at 1.11.
Consider U8C G9A U10C U11C C12U, for which the “aptazyme ON/OFF ratio” value is 1.08.
Consider U8C G9A U10C U11C C12G, for which the “aptazyme ON/OFF ratio” value came to 1.18.
Consider U8C G9A U10C U11C C12A, for which the “aptazyme ON/OFF ratio” value was 1.17.
On to U8A U10A U11G C13U, for which the “aptazyme ON/OFF ratio” value is 1.13.
In the case of U8A U10C U11A C12G, the “aptazyme ON/OFF ratio” value is 1.19.
For U8A U10C U11A C12A the value was 1.13.
Consider U8A U10C U11A C12U, for which the “aptazyme ON/OFF ratio” value was determined as 1.2.
To U8A U10G U11G C13A belongs 1.33; to U8A U10G U11G C13U, 1.3.
For U8A U10G U11G C13G the value was 1.28; for U8A U10G U11A C13U, 1.13.
Consider U8A U10G U11A C13G, for which the “aptazyme ON/OFF ratio” value was determined as 1.12.
In the case of U8A U10G U11A C13A, the “aptazyme ON/OFF ratio” value is 1.07.
With U8A U11C C13A, the “aptazyme ON/OFF ratio” value was 1.13.
On to U8A U11C C13G, for which the “aptazyme ON/OFF ratio” value was 1.08.
On to U8A U11C C13U, for which the “aptazyme ON/OFF ratio” value worked out at 1.09.
For U8A U10G U11C C13A the value was 1.06; for U8A U10G U11C C13U, 1.04; for U8A U10G U11C C13G, 1.11.
Regarding U8C G9A U10C U11C C12A C13U, the “aptazyme ON/OFF ratio” value stood at 1.1.
U8C G9A U10C U11C C12A C13G: the “aptazyme ON/OFF ratio” value amounted to 1.12.
In the case of U8C G9A U10C U11C C12A C13A, the “aptazyme ON/OFF ratio” value turned out to be 1.13.
Consider U8A U11G C12G C13U, for which the “aptazyme ON/OFF ratio” value worked out at 1.47.
For U8A U11G C12G C13A the value was 1.17; for U8A U11G C12G C13G, 1.27; for U8A U10G C12A C13A, 1.23.
In the case of U8A U10G C12A C13G, the “aptazyme ON/OFF ratio” value was 1.09.
On to U8A U10G C12A C13U, for which the “aptazyme ON/OFF ratio” value came out at 1.23.
To U8C G9A U10C C12U C13G belongs 1.26; to U8C G9A U10C C12U C13U, 1.21.
For U8C G9A U10C C12U C13A, the “aptazyme ON/OFF ratio” value was 1.29.
For U8A U10G U11A C12G C13U the value was 1.15; for U8A U10G U11A C12G C13A, 1.2.
Consider U8A U10G U11A C12G C13G, for which the “aptazyme ON/OFF ratio” value turned out to be 1.51.
For U8A U11A, the “aptazyme ON/OFF ratio” value stood at 1.14.
On to U8A U11C, for which the “aptazyme ON/OFF ratio” value stood at 1.12.
As for U8A U11G, the “aptazyme ON/OFF ratio” value was determined as 1.25.
With U8A U10G C13G, the “aptazyme ON/OFF ratio” value came out at 1.23.
Take U8A U10G C13A: the “aptazyme ON/OFF ratio” value worked out at 1.52.
For the variant U8A U10G C13U, the “aptazyme ON/OFF ratio” value stood at 1.18.
With U8A U11A C12U C13A, the “aptazyme ON/OFF ratio” value came out at 1.23.
Regarding U8A U11A C12U C13U, the “aptazyme ON/OFF ratio” value was determined as 1.18.
As for U8A U11A C12U C13G, the “aptazyme ON/OFF ratio” value stood at 1.21.
Regarding U8A U10C C12G C13A, the “aptazyme ON/OFF ratio” value is 1.19.
For U8A U10C C12G C13U the value was 1.44.
Turning to U8A U10C C12G C13G, the “aptazyme ON/OFF ratio” value came to 1.45.
To U8C G9A U10A U11C C12A C13G belongs 1.18.
In the case of U8C G9A U10A U11C C12A C13A, the “aptazyme ON/OFF ratio” value was found to be 1.17.
Regarding U8C G9A U10A U11C C12A C13U, the “aptazyme ON/OFF ratio” value is 1.19.
For U8C G9A U10A U11G C12A C13A the value was 1.1; for U8C G9A U10A U11G C12A C13G, 1.17; for U8C G9A U10A U11G C12A C13U, 1.11.
For U8A U10C U11G C12A C13U the value was 1.25; for U8A U10C U11G C12A C13G, 1.23; for U8A U10C U11G C12A C13A, 1.26.
For U8C G9A U10C C12A C13G, the “aptazyme ON/OFF ratio” value came to 1.18.
Turning to U8C G9A U10C C12A C13U, the “aptazyme ON/OFF ratio” value turned out to be 1.33.
For U8C G9A U10C C12A C13A, the “aptazyme ON/OFF ratio” value is 1.27.
Take U8A U10C C13A: the “aptazyme ON/OFF ratio” value was 1.05.
Turning to U8A U10C C13G, the “aptazyme ON/OFF ratio” value worked out at 1.05.
In the case of U8A U10C C13U, the “aptazyme ON/OFF ratio” value is 1.19.
Take U8C G9A U10A U11G C12G C13U: the “aptazyme ON/OFF ratio” value came out at 1.14.

The record behind these values is the RNAGym collection of RNA variant scans (doi:10.1021/acssynbio.7b00057).
